Assay [1] deals with human GM-CSF (human) (UniProt P04141). Put plainly: FACS receptor inhibition assay: inhibition of binding of 0.5 µg/ml biotinylated GM-CSF to GM-CSF receptor alpha on CHO-GMRa#11 cells.
Assay [2] has the same target. Put plainly: cell-based or functional assay.
The target in assay [3] is macaca mulatta (rhesus) GM-CSF (Macaca mulatta (rhesus)). Kind of assay: cell-based or functional assay.
Assay [4] concerns the target human GM-CSF receptor alpha chain (human) (UniProt P15509). Put plainly: FACS on CHO-GMRa#11 cells, MAB1006 at 1 µg/ml, R-PE anti-mouse secondary, FL2 channel.

Sequence of human GM-CSF (human) (P04141 18-144): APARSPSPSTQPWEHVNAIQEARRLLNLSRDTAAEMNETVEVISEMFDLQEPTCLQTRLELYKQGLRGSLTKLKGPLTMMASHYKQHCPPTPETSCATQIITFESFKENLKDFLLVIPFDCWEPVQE
Sequence of human GM-CSF receptor alpha chain (human) (P15509 23-400): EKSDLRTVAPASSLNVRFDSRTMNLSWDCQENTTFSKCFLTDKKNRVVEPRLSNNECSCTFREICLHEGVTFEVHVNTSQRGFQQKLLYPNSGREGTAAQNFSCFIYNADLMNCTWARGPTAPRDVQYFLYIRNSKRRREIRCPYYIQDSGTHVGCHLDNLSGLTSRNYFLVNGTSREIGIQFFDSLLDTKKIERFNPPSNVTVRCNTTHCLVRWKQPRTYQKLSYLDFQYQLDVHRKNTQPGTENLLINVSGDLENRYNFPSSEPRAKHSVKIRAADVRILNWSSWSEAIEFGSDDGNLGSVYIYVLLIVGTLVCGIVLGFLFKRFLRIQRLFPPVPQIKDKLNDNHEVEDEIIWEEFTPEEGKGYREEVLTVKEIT

In the assay with human GM-CSF (human) [1], MAB215 (antibody) yielded a % inhibition at 5 µg/ml antibody of 50%. Further, in the assay with human GM-CSF (human) [2], the IC50 (pM) in TF-1 proliferation assay, human GM-CSF 0.25 ng/ml stood at 4320 pM; the IC50 (pM) in TF-1 proliferation assay, human GM-CSF (E. coli) stood at 625 pM; the IC50 (pM) in TF-1 proliferation assay, human GM-CSF (HEK293) worked out at 54 pM; the IC50 x-fold improved compared to BVD2-21C11, TF-1 proliferation assay came to 1.5 fold. The substance also yielded an IC50 (pM) in TF-1 proliferation assay, macaca GM-CSF (HEK293) in assay [3] of 190 pM.
As for murine IgG MAB1006 (antibody), the median fluorescence value (MFL value) in assay [4] is 157.
